Here are results for 59 variants from the MegaScale stability set (Tsuboyama et al. 2023).

B1: EEHEE_rd4_0003 (parent)
chain: KKVTINGVEIKFNNPEEAVKFALELAKRLNLRIEFHGDQIKIE

Variants of B1 are the subject of this data set. The data set can be described thus: folding stability dG (cDNA display proteolysis); higher = more stable. The conditions noted are these: PBS, room temperature.
KKVTINGVEIKFNNPEEAVKFALELAKRLNTRIEFHGDQIKIE [L31T]: the “folding stability dG” value is 7.15 kJ/mol. On to KKVTINGVEIKFNNPEEAVKFALELAKRLNIRIEFHGDQIKIE [L31I], for which the “folding stability dG” value is 10.5 kJ/mol. With KKVTINGVEIKFNNPEEAVKFALELAKRLNYRIEFHGDQIKIE [L31Y], the “folding stability dG” value was found to be 8.96 kJ/mol. In the case of KKVTINGVEIKFNNPEEAVKFALELAKRLNRRIEFHGDQIKIE [L31R], the “folding stability dG” value came to 5.59 kJ/mol. The figure for KKVTINGVEIKFNNPEEAVKFALELAKRLNFRIEFHGDQIKIE [L31F] is 9.43 kJ/mol; for KKVTINGVEIKFNNPEEAVKFALELAKRLNSRIEFHGDQIKIE [L31S] it is 7.11 kJ/mol. The figure for KKVTINGVEIKFNNPEEAVKFALELAKRLNQRIEFHGDQIKIE [L31Q] is 4.72 kJ/mol; for KKVTINGVEIKFNNPEEAVKFALELAKRLNVRIEFHGDQIKIE [L31V] it is 10.7 kJ/mol; for KKVTINGVEIKFNNPEEAVKFALELAKRLNPRIEFHGDQIKIE [L31P] it is 3.12 kJ/mol.

Turning to KKVTINGVEIKFNNPEEAVKFALELAKRLNKRIEFHGDQIKIE [L31K], the “folding stability dG” value was 5.03 kJ/mol. The result for KKVTINGVEIKFNNPEEAVKFALELAKRLNMRIEFHGDQIKIE [L31M] reads 11.2 kJ/mol; that for KKVTINGVEIKFNNPEEAVKFALELAKRLNGRIEFHGDQIKIE [L31G], 10.1 kJ/mol.

Consider KKVTINGVEIKFNNPEEAVKFALELAKRLNWRIEFHGDQIKIE [L31W], for which the “folding stability dG” value was found to be 10.5 kJ/mol.

For the variant KKVTINGVEIKFNNPEEAVKFALELAKRLNHRIEFHGDQIKIE [L31H], the “folding stability dG” value was determined as 5.84 kJ/mol. Take KKVTINGVEIKFNNPEEAVKFALELAKRLNERIEFHGDQIKIE [L31E]: the “folding stability dG” value was 3.84 kJ/mol. The figure for KKVTINGVEIKFNNPEEAVKFALELAKRLNNRIEFHGDQIKIE [L31N] is 3.45 kJ/mol; for KKVTINGVEIKFNNPEEAVKFALELAKRLNLRKEFHGDQIKIE [I33K] it is 3.69 kJ/mol; for KKVTINGVEIKFNNPEEAVKFALELAKRLNLRWEFHGDQIKIE [I33W] it is 8.68 kJ/mol. The figure for KKVTINGVEIKFNNPEEAVKFALELAKRLNLRVEFHGDQIKIE [I33V] is 11.2 kJ/mol; for KKVTINGVEIKFNNPEEAVKFALELAKRLNLRNEFHGDQIKIE [I33N] it is 3.33 kJ/mol; for KKVTINGVEIKFNNPEEAVKFALELAKRLNLRGEFHGDQIKIE [I33G] it is 4.08 kJ/mol. The figure for KKVTINGVEIKFNNPEEAVKFALELAKRLNLREEFHGDQIKIE [I33E] is 2.21 kJ/mol; for KKVTINGVEIKFNNPEEAVKFALELAKRLNLRDEFHGDQIKIE [I33D] it is 2.85 kJ/mol; for KKVTINGVEIKFNNPEEAVKFALELAKRLNLRLEFHGDQIKIE [I33L] it is 9.83 kJ/mol. Consider KKVTINGVEIKFNNPEEAVKFALELAKRLNLRMEFHGDQIKIE [I33M], for which the “folding stability dG” value stood at 8.01 kJ/mol. For the variant KKVTINGVEIKFNNPEEAVKFALELAKRLNLRPEFHGDQIKIE [I33P], the “folding stability dG” value came to 5.42 kJ/mol. In the case of KKVTINGVEIKFNNPEEAVKFALELAKRLNLRTEFHGDQIKIE [I33T], the “folding stability dG” value came out at 5.47 kJ/mol. The result for KKVTINGVEIKFNNPEEAVKFALELAKRLNLRYEFHGDQIKIE [I33Y] reads 7.26 kJ/mol; that for KKVTINGVEIKFNNPEEAVKFALELAKRLNLRFEFHGDQIKIE [I33F], 8.3 kJ/mol; that for KKVTINGVEIKFNNPEEAVKFALELAKRLNLRAEFHGDQIKIE [I33A], 7.06 kJ/mol. KKVTINGVEIKFNNPEEAVKFALELAKRLNLRQEFHGDQIKIE [I33Q]: the “folding stability dG” value was determined as 4.53 kJ/mol. The result for KKVTINGVEIKFNNPEEAVKFALELAKRLNLRSEFHGDQIKIE [I33S] reads 3.8 kJ/mol. The figure for KKVTINGVEIKFNNPEEAVKFALELAKRLNLRREFHGDQIKIE [I33R] is 3.54 kJ/mol; for KKVTINGVEIKFNNPEEAVKFALELAKRLNLRHEFHGDQIKIE [I33H] it is 3.8 kJ/mol. Regarding KKVTINGVEIKFNNPEEAVKFALELAKRLNLRIHFHGDQIKIE [E34H], the “folding stability dG” value amounted to 10.1 kJ/mol. As to KKVTINGVEIKFNNPEEAVKFALELAKRLNLRICFHGDQIKIE [E34C], the “folding stability dG” value was 13.3 kJ/mol. The result for KKVTINGVEIKFNNPEEAVKFALELAKRLNLRIDFHGDQIKIE [E34D] reads 8.85 kJ/mol.

On to KKVTINGVEIKFNNPEEAVKFALELAKRLNLRIGFHGDQIKIE [E34G], for which the “folding stability dG” value amounted to 8.18 kJ/mol. The result for KKVTINGVEIKFNNPEEAVKFALELAKRLNLRIIFHGDQIKIE [E34I] reads 12.3 kJ/mol; that for KKVTINGVEIKFNNPEEAVKFALELAKRLNLRIAFHGDQIKIE [E34A], 9.57 kJ/mol; that for KKVTINGVEIKFNNPEEAVKFALELAKRLNLRIFFHGDQIKIE [E34F], 11.5 kJ/mol. For KKVTINGVEIKFNNPEEAVKFALELAKRLNLGIEFHGDQIKIE [R32G], the “folding stability dG” value came out at 6.7 kJ/mol.

For KKVTINGVEIKFNNPEEAVKFALELAKRLNLLIEFHGDQIKIE [R32L], the “folding stability dG” value amounted to 9.18 kJ/mol. For KKVTINGVEIKFNNPEEAVKFALELAKRLNLPIEFHGDQIKIE [R32P], the “folding stability dG” value worked out at 7.16 kJ/mol. The result for KKVTINGVEIKFNNPEEAVKFALELAKRLNLFIEFHGDQIKIE [R32F] reads 8.86 kJ/mol; that for KKVTINGVEIKFNNPEEAVKFALELAKRLNLWIEFHGDQIKIE [R32W], 9.22 kJ/mol. Take KKVTINGVEIKFNNPEEAVKFALELAKRLNLHIEFHGDQIKIE [R32H]: the “folding stability dG” value amounted to 9.36 kJ/mol. The result for KKVTINGVEIKFNNPEEAVKFALELAKRLNLCIEFHGDQIKIE [R32C] reads 11.8 kJ/mol.

As for KKVTINGVEIKFNNPEEAVKFALELAKRLNLIIEFHGDQIKIE [R32I], the “folding stability dG” value came out at 9.86 kJ/mol.

In the case of KKVTINGVEIKFNNPEEAVKFALELAKRLNLSIEFHGDQIKIE [R32S], the “folding stability dG” value was determined as 9.07 kJ/mol.

Turning to KKVTINGVEIKFNNPEEAVKFALELAKRLNLVIEFHGDQIKIE [R32V], the “folding stability dG” value amounted to 9.77 kJ/mol. The figure for KKVTINGVEIKFNNPEEAVKFALELAKRLNLQIEFHGDQIKIE [R32Q] is 8.8 kJ/mol.

Turning to KKVTINGVEIKFNNPEEAVKFALELAKRLNLTIEFHGDQIKIE [R32T], the “folding stability dG” value was 9.68 kJ/mol. Take KKVTINGVEIKFNNPEEAVKFALELAKRLNLEIEFHGDQIKIE [R32E]: the “folding stability dG” value came to 6.85 kJ/mol.

Take KKVTINGVEIKFNNPEEAVKFALELAKRLNLNIEFHGDQIKIE [R32N]: the “folding stability dG” value was 8.51 kJ/mol. The figure for KKVTINGVEIKFNNPEEAVKFALELAKRLNLMIEFHGDQIKIE [R32M] is 8.66 kJ/mol; for KKVTINGVEIKFNNPEEAVKFALELAKRLNLKIEFHGDQIKIE [R32K] it is 10.6 kJ/mol. The figure for KKVTINGVEIKFNNPEEAVKFALELAKRLNLDIEFHGDQIKIE [R32D] is 6.52 kJ/mol; for KKVTINGVEIKFNNPEEAVKFALELAKRLNLYIEFHGDQIKIE [R32Y] it is 9 kJ/mol.
